Among the data in patent US20220089698A1 are Virus Neutralization Potency and Virus Neutralization Potency (IC50) values, retold here.

Where only a bound is given, the exact number is not on record here.

Holding throughout (experiment): cell-based or functional assay
For experiment [1], the target named is HIV-1 envelope glycoprotein (Env, gp120) of virus VS046 (HIV-1).
Experiment [2] addresses HIV-1 envelope glycoprotein (Env, gp120) of virus 7015 (HIV-1).
Experiment [3] deals with HIV-1 envelope glycoprotein (Env, gp120) of virus THRO (HIV-1).
In experiment [4] the target is HIV-1 envelope glycoprotein (Env, gp120) of virus 8134 (HIV-1).
Experiment [5] addresses HIV-1 envelope glycoprotein (Env, gp120) of virus 7103 (HIV-1).
Experiment [6] concerns the target HIV-1 envelope glycoprotein (Env, gp120) of virus VS039 (HIV-1).
Experiment [7] concerns the target HIV-1 envelope glycoprotein (Env, gp120) of virus 1012 (HIV-1).
The target of experiment [8] is HIV-1 envelope glycoprotein (Env, gp120) of virus 1413 (HIV-1).
The target in experiment [9] is HIV-1 envelope glycoprotein (Env, gp120) of virus VS043 (HIV-1).
Experiment [10] has as its target HIV-1 envelope glycoprotein (Env, gp120) of virus 7552 (HIV-1).
Experiment [11] addresses HIV-1 envelope glycoprotein (Env, gp120) of virus 92US712 (HIV-1).
Experiment [12] deals with HIV-1 envelope glycoprotein (Env, gp120) of virus VS049 (HIV-1).
The target in experiment [13] is HIV-1 envelope glycoprotein (Env, gp120) of virus 92HT593 (HIV-1).
In experiment [14] the target is HIV-1 envelope glycoprotein (Env, gp120) of virus 7051 (HIV-1).
In experiment [15] the target is HIV-1 envelope glycoprotein (Env, gp120) of virus VS004 (HIV-1).
Experiment [16] has as its target HIV-1 envelope glycoprotein (Env, gp120) of virus REJO (HIV-1).
The target in experiment [17] is HIV-1 envelope glycoprotein (Env, gp120) of virus 1003 (HIV-1).
In experiment [18] the target is HIV-1 envelope glycoprotein (Env, gp120) of virus VS001 (HIV-1).
Experiment [19] has as its target HIV-1 envelope glycoprotein (Env, gp120) of virus VS042 (HIV-1).
Experiment [20] has as its target HIV-1 envelope glycoprotein (Env, gp120) of virus 8110 (HIV-1).
Experiment [21] has as its target HIV-1 envelope glycoprotein (Env, gp120) of virus VS026 (HIV-1).
The target of experiment [22] is HIV-1 envelope glycoprotein (Env, gp120) of virus 92US727 (HIV-1).
In experiment [23] the target is HIV-1 envelope glycoprotein (Env, gp120) of virus VS030 (HIV-1).
Experiment [24] deals with HIV-1 envelope glycoprotein (Env, gp120) of virus 8106 (HIV-1).
Experiment [25] deals with HIV-1 envelope glycoprotein (Env, gp120) of virus VS044 (HIV-1).
The target in experiment [26] is HIV-1 envelope glycoprotein (Env, gp120) of virus 302076 (HIV-1).
Experiment [27] addresses HIV-1 envelope glycoprotein (Env, gp120) of virus 7576 (HIV-1).
Experiment [28] addresses HIV-1 envelope glycoprotein (Env, gp120) of virus 7595 (HIV-1).
Experiment [29] deals with HIV-1 envelope glycoprotein (Env, gp120) of virus 8117 (HIV-1).
Experiment [30] deals with HIV-1 envelope glycoprotein (Env, gp120) of virus 92US657 (HIV-1).
Experiment [31] concerns the target HIV-1 envelope glycoprotein (Env, gp120) of virus CHO77 (HIV-1).
Experiment [32] addresses HIV-1 envelope glycoprotein (Env, gp120) of virus 7714 (HIV-1).
In experiment [33] the target is HIV-1 envelope glycoprotein (Env, gp120) of virus VS017 (HIV-1).
Experiment [34] deals with HIV-1 envelope glycoprotein (Env, gp120) of virus 7141 (HIV-1).
The target of experiment [35] is HIV-1 envelope glycoprotein (Env, gp120) of virus 1489 (HIV-1).
For experiment [36], the target named is HIV-1 envelope glycoprotein (Env, gp120) of virus 7467 (HIV-1).
Experiment [37] addresses HIV-1 envelope glycoprotein (Env, gp120) of virus 8320 (HIV-1).
For experiment [38], the target named is HIV-1 envelope glycoprotein (Env, gp120) of virus 8176 (HIV-1).
Experiment [39] deals with HIV-1 envelope glycoprotein (Env, gp120) of virus 8318 (HIV-1).
Experiment [40] deals with HIV-1 envelope glycoprotein gp120 of virus 92US657 (HIV-1 subtype B, isolate 92US657).
Experiment [41] deals with HIV-1 envelope glycoprotein gp120 of virus CHO77 (HIV-1 subtype B, virus CHO77).
For experiment [42], the target named is HIV-1 envelope glycoprotein gp120 of virus BaL (HIV-1 BaL (lab adapted strain, subtype B)).

B1: Antibody 1.1.119-1 (antibody, human IgG1, kappa, V domains shown)
VH: QVQLLQSGAAVTKPGASVRVSCEASGYNIRDYFIHWWRQAPGQGLQWVGWINPKTGQPNNPRQFQGRVSLTRHASWDFDTFSFYMDLKALRSDDTAVYFCARQRSDYWDFDVWGSGTQVTVSS
VL: DIQMTQSPSSLSASVGDRATITCQANGYLNWYQQRRGKAPKLLIYDGSKLERGVPSRFSGSRWGQEYTLTISSLQPEDIATYFCQVYEFFGPGTRLDLKR
For the molecule B1, the Virus Neutralization Potency in [1] was 0.03 µg/mL; in [2] it was 1.08 µg/mL; in experiment [3], 2.8 µg/mL; in experiment [4] it was 3.44 µg/mL; in experiment [5], 1.16 µg/mL; in [6], 0.13 µg/mL. Also, the Virus Neutralization Potency in experiment [7] was 1.06 µg/mL; in experiment [8] it was 4.52 µg/mL; in experiment [9] it was 0.81 µg/mL; in [10], more than 80 µg/mL; in [11] it was 0.03 µg/mL; in experiment [12], more than 100 µg/mL. In addition, the Virus Neutralization Potency worked out at 0.15 µg/mL in experiment [13]; 1.89 µg/mL in [14]; 6.02 µg/mL in experiment [15]; 0.03 µg/mL in experiment [16]; 0.91 µg/mL in experiment [17]; 0.37 µg/mL in experiment [18]. For the same molecule, the Virus Neutralization Potency came to 2.19 µg/mL in experiment [19]; 2.37 µg/mL in experiment [20]; 0.14 µg/mL in experiment [21]; 43.7 µg/mL in experiment [22]; 4.96 µg/mL in experiment [23]; 1.44 µg/mL in experiment [24]. Further, the Virus Neutralization Potency came out at 0.2 µg/mL in experiment [25]; 0.08 µg/mL in experiment [26]; 0.6 µg/mL in [27]; 3.07 µg/mL in experiment [28]; 1.66 µg/mL in experiment [29]; 0.3 µg/mL in experiment [30]. Also, the Virus Neutralization Potency in experiment [31] was determined as 0.02 µg/mL; in [32] it was 1.93 µg/mL; in [33] it was 2.75 µg/mL; in experiment [34] it was 4.98 µg/mL; in [35], 0.17 µg/mL; in experiment [36] it was 0.19 µg/mL. In addition, the figures for the Virus Neutralization Potency in [37], in [38] and in experiment [39] were 1.47 µg/mL, 0.27 µg/mL and 0.42 µg/mL, respectively.

B2: Antibody 1.36.35-1 (antibody, human IgG1, kappa, V domains shown)
VH: QVQLVQSGAEVKKPGASVRVSCKASGYNIRDYFMHWWRQAPGQGLQWVGWINPKTGQPNNPRQFQGRVTMTRHASWDFDTFSAYMDLSRLRSDDTATYFCARQRTDYWDFDVWGQGTMVTVSS
VL: DIQMTQSPSSLSASVGDRVTITCQANGYLNWYQQKPGKAPKLLIYDGSNLETGVPSRFSGSRWGQEYTLTISSLQPEDIATYFCQVYEFVGPGTNLDIKR
For B2, the Virus Neutralization Potency (IC50) in [40] is 5.37 µg/mL; in experiment [41], 0.32 µg/mL; in experiment [42], more than 20 µg/mL.
